Consider one molecule from PMC8822709 (Journal of Biomedical Science, 2022).

For test [1], the target named is T1, PEG-precipitated EV-A71 (Enterovirus A71, stock strain …, UniProt Q9DY01).
T1 construct: also called EV-A71 protein; EV-A71 capsid proteins; source: PEG-precipitated EV-A71 (virus propagated in RD cells)
The test can be described thus: ELISA. The conditions noted are these: both partners purified.

The target of test [2] is T2, ENO1 (Alpha-enolase), endogenous in RD cells (Homo sapiens (RD cells), UniProt P06733).
T2 construct: also called α-enolase
T2 sequence (P06733 whole entry): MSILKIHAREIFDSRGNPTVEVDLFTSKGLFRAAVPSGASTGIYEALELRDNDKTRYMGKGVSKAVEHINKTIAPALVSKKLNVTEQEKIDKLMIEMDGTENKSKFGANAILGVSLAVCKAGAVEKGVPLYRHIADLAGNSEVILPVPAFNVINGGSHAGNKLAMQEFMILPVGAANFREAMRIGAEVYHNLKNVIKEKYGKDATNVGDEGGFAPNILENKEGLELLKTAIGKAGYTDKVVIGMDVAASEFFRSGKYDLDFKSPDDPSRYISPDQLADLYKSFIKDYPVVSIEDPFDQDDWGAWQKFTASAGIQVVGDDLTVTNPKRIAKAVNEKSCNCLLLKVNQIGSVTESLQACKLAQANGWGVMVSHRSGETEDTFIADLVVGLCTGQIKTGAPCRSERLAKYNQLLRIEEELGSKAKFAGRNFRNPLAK
The test can be described thus: affinity purification with mass spectrometry. The following applies: one partner purified.

The target in test [3] is T3, ENO1 recombinant protein (α-enolase) (Homo sapiens, UniProt P06733).
T3 construct: also called hENO1; rhENO1; source: recombinant protein
T3 sequence (P06733 whole entry): as above
Kind of test: ELISA; indirect ELISA; recombinant protein (5 μg/mL) coated in carbonate-bicarbonate pH 9.6, 07-IgG1 diluted and added at 37 °C for 1 h, HRP goat anti-human IgG, OD 450 nm. The conditions noted are these: both partners purified.

B1: 07-human IgG1 antibody (antibody, V domains shown)
VH: EVQLLESGAVVKKPGESLKISCTGSGYVFRDYWVGWVRQMPGKGLEWLGMIYPDEFDIRYSPSFQGQVTISADKSIDTAYLQLSSLEASDTGIYYCARHGNTGCGGTMCYKSYLYYGMDVWGQGTTVTVS
VL: ELVLTQSPSVSVSPGQTASITCSGDKLGDKYACWYQQKPGQSPVLVIYQDNKRPSGIPERFSGSNSGNTATLTISGTRAMDEADYYCQAWDSSTCYVFGTGTKLTVL
notes: also called 07-IgG1; clone 07 recombinant antibody; source: ExpiCHO, co-transfected (pcDNA3.4 heavy and light chain), purified by protein A resin
As for B1, the binding result was “no binding” in test [1], “binds” in test [2] and “binds” in test [3].
